Publication doi:10.1101/2021.11.02.466367
Where “and” joins values, the source holds several entries; their conditions need not be identical. Identical values can stand only once.

Key:
[1] = target: Csx28 (Prevotella buccae Type VI-B2 CRISPR-Cas accessory protein), recombinant, DDM-solubilised (Prevotella buccae ATCC 33574); experiment: cryo-EM structure
[2] = target: Csx28 (Prevotella buccae Type VI-B2 CRISPR-Cas accessory protein), recombinant, DDM-solubilised (Prevotella buccae ATCC 33574); experiment: SEC-MALS

stoichiometry N [1]: 8 and 16 | stoichiometry N [2]: 8 and 16
Substance: Csx28 (Prevotella buccae Type VI-B2 CRISPR-Cas accessory protein), recombinant, DDM-solubilised (natural protein)
